Here are results for 36 variants from the Human Domainome abundance scans (Beltran et al. 2025).

B1: POU domain, class 2, transcription factor 3, residues 186 to 260; numbered along this chain, Q9UKI9 (parent)
chain: SDLEELEKFAKTFKQRRIKLGFTQGDVGLAMGKLYGNDFSQTTISRFEALNLSFKNMCKLKPLLEKWLNDAESSP

± gives the uncertainty stated by the source.

The variants in the data set derive from B1. Description: abundance fitness (aPCA) (normalised: wild type 0, dead -1); higher = more abundant; growth selection in yeast, the domain comes from the species named. To be noted: Homo sapiens.
For SDLEELEKFAKTFKQRRIKLGFTQGDVGLAMGKLYGNDFSQTTISRFEALNLSFKNMCKLKPLLESWLNDAESSP [K66S], the abundance fitness was -0.147 ± 0.041.

Turning to SDLEELEKFAKTFKQRRIKLGFTQGDVGLAMGKLYGNDFSQTTISRFEALNLSFKNMCKLKPLLEFWLNDAESSP [K66F], the abundance fitness was -0.248 ± 0.11.

On to SDLEELEKFAKTFKQRRIKLGFTQGDVGLAMGKLYGNDFSQTTISRFEALNLSFKNMCKLKPLLEQWLNDAESSP [K66Q], for which the abundance fitness is -0.036 ± 0.057.

SDLEELEKFAKTFKQRRIKLGFTQGDVGLAMGKLYGNDFSQTTISRFEALNLSFKNMCKLKPLLEGWLNDAESSP [K66G]: the abundance fitness is -0.038 ± 0.03.

On to SDLEELEKFAKTFKQRRIKLGFTQGDVGLAMGKLYGNDFSQTTISRFEALNLSFKNMCKLKPLLEMWLNDAESSP [K66M], for which the abundance fitness is -0.157 ± 0.059.

For the variant SDLEELEKFAKTFKQRRIKLGFTQGDVGLAMGKLYGNDFSQTTISRFEALNLSFKNMCKLKPLLECWLNDAESSP [K66C], the abundance fitness is -0.063 ± 0.056.

Consider SDLEELEKFAKTFKQRRIKLGFTQGDVGLAMGKLYGNDFSQTTISRFEALNLSFKNMCKLKPLLEVWLNDAESSP [K66V], for which the abundance fitness was -0.066 ± 0.035.

In the case of SDLEELEKFAKTFKQRRIKLGFTQGDVGLAMGKLYGNDFSQTTISRFEALNLSFKNMCKLKPLLEPWLNDAESSP [K66P], the abundance fitness is -0.544 ± 0.08.

For SDLEELEKFAKTFKQRRIKLGFTQGDVGLAMGKLYGNDFSQTTISRFEALNLSFKNMCKLKPLLEYWLNDAESSP [K66Y], the abundance fitness is -0.132 ± 0.1.

For SDLEELEKFAKTFKQRRIKLGFTQGDVGLAMGKLYGNDFSQTTISRFEALNLSFKNMCKLKPLLEWWLNDAESSP [K66W], the abundance fitness was -0.161 ± 0.043.

For SDLEELEKFAKTFKQRRIKLGFTQGDVGLAMGKLYGNDFSQTTISRFEALNLSFKNMCKLKPLLEDWLNDAESSP [K66D], the abundance fitness is 0.018 ± 0.051.

As to SDLEELEKFAKTFKQRRIKLGFTQGDVGLAMGKLYGNDFSQTTISRFEALNLSFKNMCKLKPLLERWLNDAESSP [K66R], the abundance fitness is -0.024 ± 0.032.

On to SDLEELEKFAKTFKQRRIKLGFTQGDVGLAMGKLYGNDFSQTTISRFEALNLSFKNMCKLKPLLEEWLNDAESSP [K66E], for which the abundance fitness was -0.061 ± 0.041.

Consider SDLEELEKFAKTFKQRRIKLGFTQGDVGLAMGKLYGNDFSQTTISRFEALNLSFKNMCKLKPLLEAWLNDAESSP [K66A], for which the abundance fitness is -0.055 ± 0.035.

In the case of SDLEELEKFAKTFKQRRIKLGFTQGDVGLAMGKLYGNDFSQTTISRFEALNLSFKNMCKLKPLLENWLNDAESSP [K66N], the abundance fitness was -0.019 ± 0.084.

Turning to SDLEELEKFAKTFKQRRIKLGFTQGDVGLAMGKLYGNDFSQTTISRFEALNLSFKNMCKLKPLLEIWLNDAESSP [K66I], the abundance fitness was -0.142 ± 0.13.

As to SDLEELEKFAKTFKQRRIKLGFTQGDVGLAMGKLYGNDFSQTTISRFEALNLSFKNMCKLKPLLETWLNDAESSP [K66T], the abundance fitness is -0.007 ± 0.045.

For SDLEELEKFAKTFKQRRIKLGFTQGDVGLAMGKLYGNDFSQTTISRFEALNLSFKNMCKLKPLLEHWLNDAESSP [K66H], the abundance fitness was -0.104 ± 0.076.

For SDLEELEKFAKTFKQRRIKLGFTQGDVGLAMGKLYGNDFSQTTISRFEALNLSFKNMCKLKPLLEKWRNDAESSP [L68R], the abundance fitness was -0.626 ± 0.046.

Take SDLEELEKFAKTFKQRRIKLGFTQGDVGLAMGKLYGNDFSQTTISRFEALNLSFKNMCKLKPLLEKWCNDAESSP [L68C]: the abundance fitness is -0.153 ± 0.052.

SDLEELEKFAKTFKQRRIKLGFTQGDVGLAMGKLYGNDFSQTTISRFEALNLSFKNMCKLKPLLEKWDNDAESSP [L68D]: the abundance fitness was -0.733 ± 0.14.

Regarding SDLEELEKFAKTFKQRRIKLGFTQGDVGLAMGKLYGNDFSQTTISRFEALNLSFKNMCKLKPLLEKWENDAESSP [L68E], the abundance fitness is -0.564 ± 0.07.

On to SDLEELEKFAKTFKQRRIKLGFTQGDVGLAMGKLYGNDFSQTTISRFEALNLSFKNMCKLKPLLEKWMNDAESSP [L68M], for which the abundance fitness was -0.109 ± 0.081.

Take SDLEELEKFAKTFKQRRIKLGFTQGDVGLAMGKLYGNDFSQTTISRFEALNLSFKNMCKLKPLLEKWHNDAESSP [L68H]: the abundance fitness is -0.358 ± 0.19.

Take SDLEELEKFAKTFKQRRIKLGFTQGDVGLAMGKLYGNDFSQTTISRFEALNLSFKNMCKLKPLLEKWINDAESSP [L68I]: the abundance fitness turned out to be 0.006 ± 0.093.

With SDLEELEKFAKTFKQRRIKLGFTQGDVGLAMGKLYGNDFSQTTISRFEALNLSFKNMCKLKPLLEKWKNDAESSP [L68K], the abundance fitness was -0.809 ± 0.12.

Take SDLEELEKFAKTFKQRRIKLGFTQGDVGLAMGKLYGNDFSQTTISRFEALNLSFKNMCKLKPLLEKWGNDAESSP [L68G]: the abundance fitness was -0.563 ± 0.041.

Regarding SDLEELEKFAKTFKQRRIKLGFTQGDVGLAMGKLYGNDFSQTTISRFEALNLSFKNMCKLKPLLEKWANDAESSP [L68A], the abundance fitness was -0.114 ± 0.043.

For the variant SDLEELEKFAKTFKQRRIKLGFTQGDVGLAMGKLYGNDFSQTTISRFEALNLSFKNMCKLKPLLEKWFNDAESSP [L68F], the abundance fitness was -0.312 ± 0.12.

Take SDLEELEKFAKTFKQRRIKLGFTQGDVGLAMGKLYGNDFSQTTISRFEALNLSFKNMCKLKPLLEKWQNDAESSP [L68Q]: the abundance fitness is -0.311 ± 0.054.

On to SDLEELEKFAKTFKQRRIKLGFTQGDVGLAMGKLYGNDFSQTTISRFEALNLSFKNMCKLKPLLEKWNNDAESSP [L68N], for which the abundance fitness was -0.673 ± 0.13.

On to SDLEELEKFAKTFKQRRIKLGFTQGDVGLAMGKLYGNDFSQTTISRFEALNLSFKNMCKLKPLLEKWPNDAESSP [L68P], for which the abundance fitness is -0.749 ± 0.22.

Consider SDLEELEKFAKTFKQRRIKLGFTQGDVGLAMGKLYGNDFSQTTISRFEALNLSFKNMCKLKPLVEKWLNDAESSP [L64V], for which the abundance fitness was -0.197 ± 0.036.

For the variant SDLEELEKFAKTFKQRRIKLGFTQGDVGLAMGKLYGNDFSQTTISRFEALNLSFKNMCKLKPLWEKWLNDAESSP [L64W], the abundance fitness is -0.981 ± 0.089.

On to SDLEELEKFAKTFKQRRIKLGFTQGDVGLAMGKLYGNDFSQTTISRFEALNLSFKNMCKLKPLQEKWLNDAESSP [L64Q], for which the abundance fitness is -0.836 ± 0.12.

On to SDLEELEKFAKTFKQRRIKLGFTQGDVGLAMGKLYGNDFSQTTISRFEALNLSFKNMCKLKPLSEKWLNDAESSP [L64S], for which the abundance fitness is -0.743 ± 0.067.
